How the values were obtained:
Type in all cases: in vitro ADME
[1] = Iontophoretic delivery of collagen through pig ear skin treated by chemical microporation, Bradford assay; settings: Silver Nitrite microporated skin, 15V, 1 h
Experimental: (§1) Collagen (100 mg/ml; Sigma) was dissolved in 10 mM sodium phosphate pH 8 containing 150 mM NaCl or in 10 mM sodium phosphate pH 8 containing 150 mM NaCl to which 10 mM glutamic acid solution was added (0.2 ml of glutamic acid were added to 1 ml of collagen to yield pH 4.0), and the glutamic acid solution was incubated at room temperature for 1 hour. Thus, positively charged collagen was driven into the skin by the positive electrode and negatively charged collagen was driven by the negative electrode. The amount of collagen transmitted through the skin was measured by the Bradford assay (Bradford M. M. Anal Biochem. 72, 248-254, 1976).
Pig ear skin piece was treated by chemical microporation using Silver Nitrite and then iontophoresis of collagen was performed as follows:
Twenty ml reservoir was mounted over the skin piece allowing its wetting (FIG. 5). Iontophoretic transmission experiment using the same solutions as described in Example 1 herein above was performed on each sample. Electrodes were placed in the upper and lower reservoirs. At the end of the experiment the amount of collagen transmitted through the skin was measured by the Bradford assay (Bradford M. M. Anal Biochem. 72, 248-254, 1976). The iontophoresis was performed under the following conditions: 1. Distance between electrodes (upper and lower reservoir)—2 cm;

[2] = Iontophoretic delivery of collagen through intact (untreated) pig ear skin piece, Bradford assay; settings: untreated 1.5 mm pig ear skin; 15V DC, 0.1 mA, 30 min; collected in 5 min intervals (FIGS. 3 and 4)
Experimental: Measurements were performed on collagen delivery through a 1.5 mm thick pig ear skin. The skin piece was obtained by slicing with scalpel a 1.5 mm thick section of a pig ear and fixed it over a 2 cm diameter laboratory vial. The vial was filled with a 50 ml solution of 0.05% NaCl in water to contact with the skin piece.
The experiment was performed by measuring the amount of collagen transmitted through the skin piece into the vial's solution by iontophoresis.
as §1
The experiments were performed at a 15V DC applied voltage and at a current of 0.1 mA for 30 min.
The amount of collagen collected in 5 min intervals was measured by the Bradford reagent.

[3] = Iontophoretic delivery of hyaluronic acid (with BSA) through pig ear skin treated by chemical microporation; settings: Silver Nitrite microporated skin, iontophoresis as in Example 1
Experimental: Bovine serum albumin (BSA; Sigma) was dissolved in 10 mM sodium phosphate pH 7.2 containing 0.15 M NaCl to yield BSA concentration of 10 mg/ml. Hyaluronic acid suspension (1 mg; Q-Med) was incubated with 0.1 ml of the BSA solution at 40° C. In addition, 0.1 ml glutamic acid (10 mM) was added to another sample of the hyaluronic acid-BSA solution to yield pH 4.0. Piece of a pig ear skin was exposed to chemical microporation using Silver Nitrite and then iontophoretic delivery of the complex was performed as described in Example 1 herein above.
Hyaluronic acid transmitted through the pig ear was stained by complexation with a copper phtalocyanin dye and measured by the Bradford reagent.

Row | Transmitted amount ([3]; initial amount 0.01 mg) [mg] | Transmitted amount (%) ([3]; initial amount 0.01 mg) | Transmitted amount ([3]; initial amount 0.05 mg) [mg] | Transmitted amount (%) ([3]; initial amount 0.05 mg) | Transmitted amount ([3]; initial amount 0.1 mg) [mg] | Transmitted amount (%) ([3]; initial amount 0.1 mg) | Substance | Transmitted amount ([1]; initial amount 0.1 mg) [mg] | Transmitted amount (%) ([1]; initial amount 0.1 mg) | Transmitted amount ([1]; initial amount 0.5 mg) [mg] | Transmitted amount (%) ([1]; initial amount 0.5 mg) | Transmitted amount ([1]; initial amount 1.0 mg) [mg] | Transmitted amount (%) ([1]; initial amount 1.0 mg) | Transmitted amount ([1]; initial amount 10.0 mg) [mg] | Transmitted amount (%) ([1]; initial amount 10.0 mg) | Transmitted amount ([1]; initial amount 20.0 mg) [mg] | Transmitted amount (%) ([1]; initial amount 20.0 mg) | collagen transmitted through the skin piece by iontophoresis [2]
1 |  |  |  |  |  |  | Collagen | 0.04 | 40 | 0.3 | 60 | 0.48 | 48 | 5.6 | 56 | 11.0 | 55 | iontophoretically transmitted through the piece of pig ear skin
2 | 0.007 | 70 | 0.030 | 60 | 0.046 | 46 | Hyaluronic acid |  |  |  |  |  |  |  |  |  |  | 
